Like-named read-outs stand apart in the source and are kept apart here.
Experiments:
[1] = minipig, in vivo
Description: Pharmacokinetic analysis was conducted in Female Minipigs weighing 12±1 kg for 2 days. Pigs in the treatment group were fasted overnight prior to the test sample administration. All the test animals in the treatment groups were administered with respective test formulation to the pre-designated animals. The animal was restrained and its head was held vertically, the jaws were pulled away, the tongue was gently lifted with a forceps followed by placement of a polypeptide formulation as described herein buccally/sublingually. After placing a polypeptide formulation as described herein, the snout was held together for about 1-2 mins to prevent the chewing of the polypeptide formulation. The time of dosage of each animal was noted. Blood samples were collected at aforementioned time points 0 min, 15 min, 30 min, 1 hour, 2 hours, 4 hours, 8 hours, 12 hours, 24 hours, and 48 hours into an EDTA-blood collection tubes for the separation of plasma to determine insulin levels by ELISA. Plasma samples collected at different time points were analyzed by ELISA kit according to ABBEXA protocol. This kit is based on sandwich enzyme-linked immuno-sorbent assay technology. An antibody, anti-insulin was pre-coated onto a 96-well plate. Standards, test samples, and biotin-conjugated reagent were added to the wells and incubated. The HRP-conjugated reagent was then added, and the whole plate was incubated. Unbound conjugates were removed using wash buffer at each stage. TMB substrate was used to quantify the HRP enzymatic reaction. After TMB substrate was added, only wells that contain sufficient INS will produce a blue colored product, which then changes to yellow after adding the acidic stop solution. The intensity of the yellow color is proportional to the INS amount bound on the plate. The Optical Density (OD) was measured spectrophotometrically at 450 nm in a microplate reader, from which the concentration of INS can be calculated.
Insulin was analyzed in plasma using a specific enzyme linked immunosorbent assay (ELISA). Pharmacokinetic endpoints were determined using noncompartmental methods using PK Solutions software. AUC was approximated using the trapezoidal rule on the observed concentrations. C max for each Insulin dose was derived as the maximum of all valid concentrations, and t max was then determined as the corresponding time point to C max. The terminal elimination rate constant (λz) was estimated by log-linear regression on the terminal part of the concentration-time curve, and t ½ was then calculated as t ½=ln 2/λz.

[2] = rat, in vivo
Description: Pharmacokinetic analysis was conducted in Female rats weighing 220-250 grams for 2 days. Rats in the oral treatment group was fasted overnight prior to the test sample administration. All the test animals in the treatment groups were administered with respective test formulation to the pre-designated animals. The animal was restrained and its head was held vertically, the jaws were pulled away, the tongue was gently lifted with a forceps followed by placement of a polypeptide formulation as described herein buccally/sublingually. After placing a polypeptide formulation as described herein, the snout was held together for about 1-2 mins to prevent the chewing of the polypeptide formulation. The time of dosage of each animal was noted. Blood samples were collected at aforementioned time points 0 min, 15 min, 30 min, 1 hour, 2 hours, 4 hours, 8 hours, 12 hours, 24 hours, and 48 hours into an EDTA-blood collection tubes for the separation of plasma to determine insulin levels by ELISA. Plasma samples collected at different time points were analyzed by ELISA kit according to ABBEXA protocol. This kit is based on sandwich enzyme-linked immuno-sorbent assay technology. An antibody, anti-insulin was pre-coated onto a 96-well plate. Standards, test samples, and biotin-conjugated reagent were added to the wells and incubated. The HRP-conjugated reagent was then added, and the whole plate was incubated. Unbound conjugates were removed using wash buffer at each stage. TMB substrate was used to quantify the HRP enzymatic reaction. After TMB substrate was added, only wells that contain sufficient INS will produce a blue colored product, which then changes to yellow after adding the acidic stop solution. The intensity of the yellow color is proportional to the INS amount bound on the plate. The Optical Density (OD) was measured spectrophotometrically at 450 nm in a microplate reader, from which the concentration of INS can be calculated.
Insulin was analyzed in plasma using a specific enzyme linked immunosorbent assay (ELISA). Pharmacokinetic endpoints were determined using noncompartmental methods using PK Solutions software. AUC was approximated using the trapezoidal rule on the observed concentrations. C max for each Insulin dose was derived as the maximum of all valid concentrations, and t max was then determined as the corresponding time point to C max. The terminal elimination rate constant (λz) was estimated by log-linear regression on the terminal part of the concentration-time curve, and t ½ was then calculated as t½=ln 2/λz.

[3] = in vivo
[4] = Pharmacokinetics of hGH in minipigs, sugar truffle buccal/sublingual vs intravenous, plasma hGH ELISA; assay type: in vivo; conditions: for Mean hGH levels: pigs, plasma
Description: Pharmacokinetic analysis was conducted in Female Minipigs weighing 12±1 kg for 2 days. Pigs in the oral treatment group was either fasted overnight or fed prior to the test sample administration. All the test animals in the treatment groups were administered with respective test formulation to the pre-designated animals. The animal was restrained and its head was held vertically, the jaws were pulled away, the tongue was gently lifted with a forceps followed by placement of a polypeptide formulation as described herein buccally/sublingually. After placing a polypeptide formulation as described herein, the snout was held together for about 1-2 mins to prevent the chewing of the polypeptide formulation. The time of dosage of each animal was noted. […] Plasma samples collected at different time points were analyzed by ELISA kit according to Creative Diagnostics protocol. This kit is based on sandwich enzyme-linked immuno-sorbent assay technology. […] Standards, test samples, and biotin-conjugated reagent were added to the wells and incubated. The HRP-conjugated reagent was then added, and the whole plate was incubated. Unbound conjugates were removed using wash buffer at each stage. TMB substrate was used to quantify the HRP enzymatic reaction.
Pharmacokinetic endpoints were determined using noncompartmental methods using PK Solutions software. AUC was approximated using the trapezoidal rule on the observed concentrations. […] The terminal elimination rate constant (λz) was estimated by log-linear regression on the terminal part of the concentration-time curve, and t ½ was then calculated as t ½=ln 2/X z.

[5] = minipigs, buccal/sublingual hGH formulation
[6] = minipigs, intravenous hGH formulation

Human Insulin R: peptide/protein hormone structurally identical to human insulin synthesized through rDNA technology; SC marketed liquid or lyophilized microparticles in sugar truffle shell
AUC 0-inf/D_obs ([1]; 2.08 mg): 7418.052 mU/L*h/(mg) | AUC 0-inf/D_pred ([1]; 2.08 mg): 7439.299 mU/L*h/(mg) | AUC 0-inf_obs ([1]; 2.08 mg): 2574.064 mU/L*h | AUC 0-inf_pred ([1]; 2.08 mg): 2581.437 mU/L*h | AUC 0-t ([1]; 2.08 mg): 2511.461 mU/L*h | AUC t-inf_obs ([1]; 2.08 mg): 62.603 mU/L*h | AUC t-inf_pred ([1]; 2.08 mg): 69.975 mU/L*h | Cl/F_obs ([1]; 2.08 mg): 0.000 (mg)/(mU/L)/h | Cl/F_pred ([1]; 2.08 mg): 0.000 (mg)/(mU/L)/h | Cmax ([1]; 2.08 mg): 330.950 mU/L | MRT 0-inf_obs ([1]; 2.08 mg): 11.492 h | MRT 0-inf_pred ([1]; 2.08 mg): 11.639 h | MRT 0-t ([1]; 2.08 mg): 10.214 h | Tmax ([1]; 2.08 mg): 0.500 h | Vz/F_obs ([1]; 2.08 mg): 0.002 (mg)/(mU/L) | Vz/F_pred ([1]; 2.08 mg): 0.002 (mg)/(mU/L) | t½ ([1]; 2.08 mg): 10.234 h | AUC 0-inf/D_obs ([1]; sc, 0.347 mg): 3483.581 mU/L*h/(mg) | AUC 0-inf/D_pred ([1]; sc, 0.347 mg): 3434.617 mU/L*h/(mg) | AUC 0-inf_obs ([1]; sc, 0.347 mg): 1208.803 mU/L*h | AUC 0-inf_pred ([1]; sc, 0.347 mg): 1191.812 mU/L*h | AUC 0-t ([1]; sc, 0.347 mg): 1101.784 mU/L*h | AUC t-inf_obs ([1]; sc, 0.347 mg): 107.019 mU/L*h | AUC t-inf_pred ([1]; sc, 0.347 mg): 90.028 mU/L*h | Cl/F_obs ([1]; sc, 0.347 mg): 0.000 (mg)/(mU/L)/h | Cl/F_pred ([1]; sc, 0.347 mg): 0.000 (mg)/(mU/L)/h | Cmax ([1]; sc, 0.347 mg): 316.870 mU/L | MRT 0-inf_obs ([1]; sc, 0.347 mg): 13.028 h | MRT 0-inf_pred ([1]; sc, 0.347 mg): 12.134 h | MRT 0-t ([1]; sc, 0.347 mg): 6.938 h | Tmax ([1]; sc, 0.347 mg): 2.000 h | Vz/F_obs ([1]; sc, 0.347 mg): 0.008 (mg)/(mU/L) | Vz/F_pred ([1]; sc, 0.347 mg): 0.008 (mg)/(mU/L) | t½ ([1]; sc, 0.347 mg): 19.218 h | AUC 0-inf/D_obs ([2]; 0.52 mg): 4373.827 mU/L*h/(mg) | AUC 0-inf/D_pred ([2]; 0.52 mg): 4364.913 mU/L*h/(mg) | AUC 0-inf_obs ([2]; 0.52 mg): 2274.390 mU/L*h | AUC 0-inf_pred ([2]; 0.52 mg): 2269.755 mU/L*h | AUC 0-t ([2]; 0.52 mg): 2204.699 mU/L*h | AUC t-inf_obs ([2]; 0.52 mg): 69.691 mU/L*h | AUC t-inf_pred ([2]; 0.52 mg): 65.056 mU/L*h | Cl/F_obs ([2]; 0.52 mg): 0.000 (mg)/(mU/L)/h | Cl/F_pred ([2]; 0.52 mg): 0.000 (mg)/(mU/L)/h | Cmax ([2]; 0.52 mg): 331.520 mU/L | MRT 0-inf_obs ([2]; 0.52 mg): 11.202 h | MRT 0-inf_pred ([2]; 0.52 mg): 11.097 h | MRT 0-t ([2]; 0.52 mg): 9.580 h | Tmax ([2]; 0.52 mg): 0.250 h | Vz/F_obs ([2]; 0.52 mg): 0.003 (mg)/(mU/L) | Vz/F_pred ([2]; 0.52 mg): 0.003 (mg)/(mU/L) | t½ ([2]; 0.52 mg): 10.064 h | AUC 0-inf/D_obs ([2]; sc, 0.087 mg): 6997.06 mU/L*h/(mg) | AUC 0-inf/D_pred ([2]; sc, 0.087 mg): 6935.40 mU/L*h/(mg) | AUC 0-inf_obs ([2]; sc, 0.087 mg): 2427.98 mU/L*h | AUC 0-inf_pred ([2]; sc, 0.087 mg): 2406.58 mU/L*h | AUC 0-t ([2]; sc, 0.087 mg): 2382.00 mU/L*h | AUC t-inf_obs ([2]; sc, 0.087 mg): 45.98 mU/L*h | AUC t-inf_pred ([2]; sc, 0.087 mg): 24.58 mU/L*h | Cl/F_obs ([2]; sc, 0.087 mg): 0.00 (mg)/(mU/L)/h | Cl/F_pred ([2]; sc, 0.087 mg): 0.00 (mg)/(mU/L)/h | Cmax ([2]; sc, 0.087 mg): 332.03 mU/L | MRT 0-inf_obs ([2]; sc, 0.087 mg): 8.70 h | MRT 0-inf_pred ([2]; sc, 0.087 mg): 8.26 h | MRT 0-t ([2]; sc, 0.087 mg): 7.74 h | Tmax ([2]; sc, 0.087 mg): 0.50 h | Vz/F_obs ([2]; sc, 0.087 mg): 0.00 (mg)/(mU/L) | Vz/F_pred ([2]; sc, 0.087 mg): 0.00 (mg)/(mU/L) | t½ ([2]; sc, 0.087 mg): 7.21 h | bioavailability when compared to SC or IV administration [3]: greater than 7%

hGH: human growth hormone (human recombinant), Norditropin NordiFlex; lyophilized microparticles in sugar truffle shell
AUC 0-inf/D_obs [4, 5]: 49506.598 pg·h/mL/mg | AUC 0-inf/D_pred [4, 5]: 49536.628 pg·h/mL/mg | AUC 0-inf_obs [4, 5]: 123.766495 ng·h/mL | AUC 0-inf_pred [4, 5]: 123.84157 ng·h/mL | AUC 0-t [4, 5]: 118.956091 ng·h/mL | AUC t-inf_obs [4, 5]: 4.810404 ng·h/mL | AUC t-inf_pred [4, 5]: 4.885479 ng·h/mL | AUMC 0-inf_obs [4, 5]: 1203569.518 pg/ml*h^2 | AUMC 0-inf_pred [4, 5]: 1208579.228 pg/ml*h^2 | AUMC 0-t [4, 5]: 882575.168 pg/ml*h^2 | AUMC t-inf_obs [4, 5]: 320994.350 pg/ml*h^2 | AUMC t-inf_pred [4, 5]: 326004.060 pg/ml*h^2 | Cl/F_obs [4, 5]: 0.000 (mg)/(pg/ml)/h | Cl/F_pred [4, 5]: 0.000 (mg)/(pg/ml)/h | Clast_obs [4, 5]: 0.25684 ng/mL | Clast_pred [4, 5]: 0.260848 ng/mL | Cmax [4, 5]: 27.12344 ng/mL | Lambda_z [4, 5]: 0.053 h⁻¹ | MRT 0-inf_obs [4, 5]: 9.725 h | MRT 0-inf_pred [4, 5]: 9.759 h | MRT 0-t [4, 5]: 7.419 h | Tlag [4, 5]: 0.000 h | Tlast [4, 5]: 48.000 h | Tmax [4, 5]: 1.000 h | Vz/F_obs [4, 5]: 0.000 (mg)/(pg/ml) | Vz/F_pred [4, 5]: 0.000 (mg)/(pg/ml) | t½ [4, 5]: 12.982 h | AUC 0-inf/D_obs [4, 6]: 485023.532 pg·h/mL/mg | AUC 0-inf/D_pred [4, 6]: 479198.128 pg·h/mL/mg | AUC 0-inf_obs [4, 6]: 160.057765 ng·h/mL | AUC 0-inf_pred [4, 6]: 158.135382 ng·h/mL | AUC 0-t [4, 6]: 154.059131 ng·h/mL | AUC t-inf_obs [4, 6]: 5.998634 ng·h/mL | AUC t-inf_pred [4, 6]: 4.076251 ng·h/mL | AUMC 0-inf_obs [4, 6]: 1696005.242 pg/ml*h^2 | AUMC 0-inf_pred [4, 6]: 1578826.575 pg/ml*h^2 | AUMC 0-t [4, 6]: 1330359.118 pg/ml*h^2 | AUMC 0-t/0-inf_pred [4, 6]: 0.843 | AUMC t-inf_obs [4, 6]: 365646.123 pg/ml*h^2 | AUMC t-inf_pred [4, 6]: 248467.457 pg/ml*h^2 | C0 [4, 6]: 18.14454 ng/mL | Cl_obs [4, 6]: 0.000 (mg)/(pg/ml)/h | Clast_obs [4, 6]: 0.46304 ng/mL | Clast_pred [4, 6]: 0.31465 ng/mL | Cmax [4, 6]: 22.5132 ng/mL | Lambda_z [4, 6]: 0.077 h⁻¹ | MRT 0-inf_obs [4, 6]: 10.596 h | MRT 0-inf_pred [4, 6]: 9.984 h | MRT 0-t [4, 6]: 8.635 h | Tlast [4, 6]: 48.000 h | Tmax [4, 6]: 0.500 h | Vss_obs [4, 6]: 0.000 (mg)/(pg/ml) | Vz_obs [4, 6]: 0.000 (mg)/(pg/ml) | t½ [4, 6]: 8.980 h | Mean hGH levels ([4]; GI- IV, time 0 hrs): 18144.54 ± 1619.64 pg/mL | Mean hGH levels ([4]; GI- IV, time 0.08 hrs): 20014.87 ± 620.32 pg/mL | Mean hGH levels ([4]; GI- IV, time 0.5 hrs): 22513.2 ± 562.85 pg/mL | Mean hGH levels ([4]; GI- IV, time 1 hrs): 22130.7 ± 728.54 pg/mL | Mean hGH levels ([4]; GI- IV, time 4 hrs): 14910.13 ± 2908.87 pg/mL | Mean hGH levels ([4]; GI- IV, time 8 hrs): 1159.19 ± 226.15 pg/mL | Mean hGH levels ([4]; GI- IV, time 24 hrs): 1495.55 ± 291.77 pg/mL | Mean hGH levels ([4]; GI- IV, time 48 hrs): 463.04 ± 90.34 pg/mL | Mean hGH levels ([4]; GII- Buccal/sublingual, time 0 hrs): 20672.24 ± 1140.76 pg/mL | Mean hGH levels ([4]; GII- Buccal/sublingual, time 0.08 hrs): 18582.31 ± 1303.34 pg/mL | Mean hGH levels ([4]; GII- Buccal/sublingual, time 0.5 hrs): 26137.66 ± 4718.88 pg/mL | Mean hGH levels ([4]; GII- Buccal/sublingual, time 1 hrs): 27123.44 ± 382.69 pg/mL | Mean hGH levels ([4]; GII- Buccal/sublingual, time 4 hrs): 2681.8 ± 1281.33 pg/mL | Mean hGH levels ([4]; GII- Buccal/sublingual, time 8 hrs): 2208.63 ± 86.73 pg/mL | Mean hGH levels ([4]; GII- Buccal/sublingual, time 24 hrs): 971.98 ± 38.36 pg/mL | Mean hGH levels ([4]; GII- Buccal/sublingual, time 48 hrs): 256.84 ± 13.49 pg/mL
